This note sets out measurements from article PMC10377191, “The Crystal Structure of the Hsp90-LA1011 Complex and the Mechanism by Which LA1011 May Improve the Prognosis of Alzheimer’s Disease” (Biomolecules, 2023).

This experiment deals with T1, yeast Hsp90 (yeast, UniProt P02829 1-709).
T1 construct: yeast Hsp90 as used in the ITC experiments; probably the full-length protein was used (surmise)
As to the kind of experiment: ITC; 400 μM FKBP51 or FKBP51-Δ7He injected into 30 μM Hsp90; 20 mM Tris pH 7.5, 5 mM NaCl, 30 °C. The conditions noted are these: both partners purified.

T1 sequence (P02829 whole entry): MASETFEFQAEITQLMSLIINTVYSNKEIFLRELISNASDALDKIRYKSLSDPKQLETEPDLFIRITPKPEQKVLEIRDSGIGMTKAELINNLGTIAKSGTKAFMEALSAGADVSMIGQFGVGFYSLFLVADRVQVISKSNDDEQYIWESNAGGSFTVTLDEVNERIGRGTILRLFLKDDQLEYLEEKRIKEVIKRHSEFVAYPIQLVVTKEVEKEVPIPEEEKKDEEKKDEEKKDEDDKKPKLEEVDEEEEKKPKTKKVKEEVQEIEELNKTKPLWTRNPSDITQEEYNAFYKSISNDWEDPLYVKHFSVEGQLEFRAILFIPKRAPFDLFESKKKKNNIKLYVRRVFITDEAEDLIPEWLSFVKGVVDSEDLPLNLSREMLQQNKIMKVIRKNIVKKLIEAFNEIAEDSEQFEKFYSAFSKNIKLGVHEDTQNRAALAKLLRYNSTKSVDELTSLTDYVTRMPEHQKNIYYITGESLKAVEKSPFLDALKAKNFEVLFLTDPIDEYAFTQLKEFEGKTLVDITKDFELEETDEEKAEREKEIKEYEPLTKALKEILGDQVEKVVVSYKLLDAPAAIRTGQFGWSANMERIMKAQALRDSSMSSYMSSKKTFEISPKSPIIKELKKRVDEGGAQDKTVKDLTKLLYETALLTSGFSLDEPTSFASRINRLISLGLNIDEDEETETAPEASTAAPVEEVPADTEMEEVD

B1: FKBP51-Δ7He (lacking residues 401–457 of the extended 7th helix of the TPR domain) (domain or fragment, UniProt Q13451 1-400, looked up)
chain: MTTDEGAKNNEESPTATVAEQGEDITSKKDRGVLKIVKRVGNGEETPMIGDKVYVHYKGKLSNGKKFDSSHDRNEPFVFSLGKGQVIKAWDIGVATMKKGEICHLLCKPEYAYGSAGSLPKIPSNATLFFEIELLDFKGEDLFEDGGIIRRTKRKGEGYSNPNEGATVEIHLEGRCGGRMFDCRDVAFTVGEGEDHDIPIGIDKALEKMQREEQCILYLGPRYGFGEAGKPKFGIEPNAELIYEVTLKSFEKAKESWEMDTKEKLEQAAIVKEKGTVYFKGGKYMQAVIQYGKIVSWLEMEYGLSEKESKASESFLLAAFLNLAMCYLKLREYTKAVECCDKALGLDSANEKGLYRRGEAQLLMNEFESAKGDFEKVLEVNPQNKAARLQISMCQKKAKE
notes: FKBP51 lacking residues 401–457 (the helical extension of the 7th helix of the TPR domain), that is, ending at residue 400; also called FKBP51-Δ7He mutant; FKBP51 mutant lacking the helical extension; source: gift of constructs from D. Southworth
Take B1: binding was put at a Kd of 11.6 µM and the stoichiometry N – broadly, the number of molecules, sites or subunits per partner or assembly – was 1.25 FKBP51-Δ7He per Hsp90.
